Paper PMC5694551, “Kir2.1-Nav1.5 Channel Complexes Are Differently Regulated than Kir2.1 and Nav1.5 Channels Alone” (Frontiers in Physiology, 2017)

Molecular target: T1, Nav1.5 channels of rat ventricular myocytes (rat (endogenous in ventricular myocytes), UniProt P15389 1-2019)
T1 construct: Nav1.5 sodium channel alpha subunit, endogenous at the membrane of Sprague-Dawley rat ventricular myocytes; source: endogenous, isolated rat ventricular myocytes (fixed, non-permeabilized)
Experiment: proximity ligation; Duolink PLA in fixed, non-permeabilized rat ventricular myocytes; primary antibodies against extracellular domains of Nav1.5 and Kir2.1; buffers without detergents; confocal microscopy; negative control without primary antibodies
Details: partners not purified

T1 sequence (P15389 whole entry): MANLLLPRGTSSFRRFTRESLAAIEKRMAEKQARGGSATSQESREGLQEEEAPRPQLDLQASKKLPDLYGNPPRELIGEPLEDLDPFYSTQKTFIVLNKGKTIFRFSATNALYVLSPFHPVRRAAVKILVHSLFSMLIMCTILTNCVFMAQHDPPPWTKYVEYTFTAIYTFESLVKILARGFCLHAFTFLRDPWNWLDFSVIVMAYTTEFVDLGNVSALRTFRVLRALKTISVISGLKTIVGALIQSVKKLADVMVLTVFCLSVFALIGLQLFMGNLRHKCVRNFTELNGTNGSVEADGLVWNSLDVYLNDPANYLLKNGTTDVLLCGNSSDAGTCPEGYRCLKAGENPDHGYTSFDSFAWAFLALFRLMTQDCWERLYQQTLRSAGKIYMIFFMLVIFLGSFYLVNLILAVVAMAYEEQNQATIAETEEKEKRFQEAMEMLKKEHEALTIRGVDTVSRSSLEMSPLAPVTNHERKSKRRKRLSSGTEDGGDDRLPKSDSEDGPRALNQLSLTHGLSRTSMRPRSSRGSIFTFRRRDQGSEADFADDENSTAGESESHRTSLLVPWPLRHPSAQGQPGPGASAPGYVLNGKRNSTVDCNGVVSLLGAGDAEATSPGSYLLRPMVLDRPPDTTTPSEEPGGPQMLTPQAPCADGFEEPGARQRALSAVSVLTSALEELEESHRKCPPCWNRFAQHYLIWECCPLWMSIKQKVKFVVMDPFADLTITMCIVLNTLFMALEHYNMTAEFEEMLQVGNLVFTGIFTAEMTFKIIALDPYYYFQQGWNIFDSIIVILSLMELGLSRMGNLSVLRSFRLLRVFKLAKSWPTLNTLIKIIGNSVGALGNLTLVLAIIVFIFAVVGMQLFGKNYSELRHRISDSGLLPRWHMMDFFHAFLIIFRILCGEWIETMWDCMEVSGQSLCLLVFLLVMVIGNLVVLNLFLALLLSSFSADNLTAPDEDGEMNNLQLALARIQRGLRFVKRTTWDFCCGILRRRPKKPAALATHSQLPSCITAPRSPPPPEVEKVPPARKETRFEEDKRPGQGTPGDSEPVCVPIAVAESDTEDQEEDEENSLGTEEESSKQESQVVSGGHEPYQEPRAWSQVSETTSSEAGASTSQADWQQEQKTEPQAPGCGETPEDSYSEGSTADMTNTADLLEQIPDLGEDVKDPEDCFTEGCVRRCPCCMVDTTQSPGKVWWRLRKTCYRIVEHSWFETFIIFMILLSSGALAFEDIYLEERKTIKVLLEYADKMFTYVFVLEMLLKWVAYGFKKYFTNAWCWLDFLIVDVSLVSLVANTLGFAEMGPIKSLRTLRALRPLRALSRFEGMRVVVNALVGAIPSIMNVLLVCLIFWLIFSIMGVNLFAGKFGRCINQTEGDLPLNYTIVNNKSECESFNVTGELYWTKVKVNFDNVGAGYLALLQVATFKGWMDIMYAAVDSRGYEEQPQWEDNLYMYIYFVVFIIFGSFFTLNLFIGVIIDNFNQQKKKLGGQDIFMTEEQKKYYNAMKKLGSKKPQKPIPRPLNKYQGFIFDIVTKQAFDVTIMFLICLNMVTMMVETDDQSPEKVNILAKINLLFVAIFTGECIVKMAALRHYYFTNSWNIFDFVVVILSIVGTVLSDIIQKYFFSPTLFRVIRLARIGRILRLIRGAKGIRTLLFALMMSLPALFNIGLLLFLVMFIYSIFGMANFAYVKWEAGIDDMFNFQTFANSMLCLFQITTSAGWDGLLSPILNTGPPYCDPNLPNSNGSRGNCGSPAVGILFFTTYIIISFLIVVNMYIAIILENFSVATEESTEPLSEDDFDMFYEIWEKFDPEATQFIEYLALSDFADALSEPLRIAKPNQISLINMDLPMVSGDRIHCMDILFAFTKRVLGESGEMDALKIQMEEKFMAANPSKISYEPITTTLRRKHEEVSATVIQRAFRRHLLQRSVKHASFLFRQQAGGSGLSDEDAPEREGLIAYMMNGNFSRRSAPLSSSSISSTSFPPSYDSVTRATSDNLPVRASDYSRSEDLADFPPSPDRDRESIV

B1: Kir2.1 channels of rat ventricular myocytes (natural protein, rat (endogenous in ventricular myocytes), UniProt Q64273 1-427, looked up)
chain: MGSVRTNRYSIVSSEEDGMKLATMAVANGFGNGKSKVHTRQQCRSRFVKKDGHCNVQFINVGEKGQRYLADIFTTCVDIRWRWMLVIFCLAFVLSWLFFGCVFWLIALLHGDLDASKESKACVSEVNSFTAAFLFSIETQTTIGYGFRCVTDECPIAVFMVVFQSIVGCIIDAFIIGAVMAKMAKPKKRNETLVFSHNAVIAMRDGKLCLMWRVGNLRKSHLVEAHVRAQLLKSRITSEGEYIPLDQIDINVGFDSGIDRIFLVSPITIVHEIDEDSPLYDLSKQDIDNADFEIVVILEGMVEATAMTTQCRSSYLANEILWGHRYEPVLFEEKHCYKVDYSRFHKTYEVPNTPLCSARDLAEKKYILSNANSFCYENEVALTSKEEEDSENGVPESTSTDSPPGIDLHNQASVPLEPRPLRRESEI
notes: Kir2.1 inward rectifier K+ channel, endogenous at the membrane of Sprague-Dawley rat ventricular myocytes; source: endogenous, isolated rat ventricular myocytes (fixed, non-permeabilized)
- fold increase of the PLA fluorescence signal over the negative control (no primary antibodies): ~6.5 fold
